Laboratory results published in patent US20160153985A1.

How the values were obtained:
[1] = biological target: pure human iC3b (Complement Technology, A115) (human) (UniProt P01024); assay: sandwich ELISA, capture A209 (Example 5), goat anti-C3-HRP; TABLE 6 well A6, blocker
[2] = biological target: pure human iC3b (Complement Technology, A115) (human) (UniProt P01024); assay: sandwich ELISA, capture A209 (Example 5), goat anti-C3-HRP; TABLE 6 well A8, blocker
[3] = biological target: pure human iC3b (Complement Technology, A115) (human) (UniProt P01024); assay: sandwich ELISA, capture A209 (Example 5), goat anti-C3-HRP; TABLE 6 well B2, blocker
[4] = biological target: pure human iC3b (Complement Technology, A115) (human) (UniProt P01024); assay: sandwich ELISA, capture A209 (Example 5), goat anti-C3-HRP; TABLE 6 well B3, blocker
[5] = biological target: pure human iC3b (Complement Technology, A115) (human) (UniProt P01024); assay: sandwich ELISA, capture A209 (Example 5), goat anti-C3-HRP; TABLE 6 well B4, blocker
[6] = biological target: pure human iC3b (Complement Technology, A115) (human) (UniProt P01024); assay: sandwich ELISA, capture A209 (Example 5), goat anti-C3-HRP; TABLE 6 well B6, blocker
[7] = biological target: pure human iC3b (Complement Technology, A115) (human) (UniProt P01024); assay: sandwich ELISA, capture A209 (Example 5), goat anti-C3-HRP; TABLE 6 well B9, blocker
[8] = biological target: pure human iC3b (Complement Technology, A115) (human) (UniProt P01024); assay: sandwich ELISA, capture A209 (Example 5), goat anti-C3-HRP; TABLE 6 well C2, 30% vitreous
[9] = biological target: pure human iC3b (Complement Technology, A115) (human) (UniProt P01024); assay: sandwich ELISA, capture A209 (Example 5), goat anti-C3-HRP; TABLE 6 well D2, 30% vitreous
[10] = biological target: pure human iC3b (Complement Technology, A115) (human) (UniProt P01024); assay: sandwich ELISA, capture A209 (Example 5), goat anti-C3-HRP; TABLE 6 well D5, 30% vitreous
[11] = biological target: pure human iC3b (Complement Technology, A115) (human) (UniProt P01024); assay: sandwich ELISA, capture A209 (Example 5), goat anti-C3-HRP; TABLE 6 well D6, 30% vitreous
[12] = biological target: pure human iC3b (Complement Technology, A115) (human) (UniProt P01024); assay: sandwich ELISA, capture A209 (Example 5), goat anti-C3-HRP; TABLE 6 well E3, 20% vitreous
[13] = biological target: pure human iC3b (Complement Technology, A115) (human) (UniProt P01024); assay: sandwich ELISA, capture A209 (Example 5), goat anti-C3-HRP; TABLE 6 well E4, 20% vitreous
[14] = biological target: pure human iC3b (Complement Technology, A115) (human) (UniProt P01024); assay: sandwich ELISA, capture A209 (Example 5), goat anti-C3-HRP; TABLE 6 well E6, 20% vitreous
[15] = biological target: pure human iC3b (Complement Technology, A115) (human) (UniProt P01024); assay: sandwich ELISA, capture A209 (Example 5), goat anti-C3-HRP; TABLE 6 well E7, 20% vitreous
[16] = biological target: pure human iC3b (Complement Technology, A115) (human) (UniProt P01024); assay: sandwich ELISA, capture A209 (Example 5), goat anti-C3-HRP; TABLE 6 well F3, 20% vitreous
[17] = biological target: pure human iC3b (Complement Technology, A115) (human) (UniProt P01024); assay: sandwich ELISA, capture A209 (Example 5), goat anti-C3-HRP; TABLE 6 well F4, 20% vitreous
[18] = biological target: pure human iC3b (Complement Technology, A115) (human) (UniProt P01024); assay: sandwich ELISA, capture A209 (Example 5), goat anti-C3-HRP; TABLE 6 well F6, 20% vitreous
[19] = biological target: pure human iC3b (Complement Technology, A115) (human) (UniProt P01024); assay: sandwich ELISA, capture A209 (Example 5), goat anti-C3-HRP; TABLE 6 well F7, 20% vitreous
[20] = biological target: pure human iC3b (Complement Technology, A115) (human) (UniProt P01024); assay: sandwich ELISA, capture A209 (Example 5), goat anti-C3-HRP; TABLE 6 well F8, 20% vitreous
[21] = biological target: pure human iC3b (Complement Technology, A115) (human) (UniProt P01024); assay: sandwich ELISA, capture A209 (Example 5), goat anti-C3-HRP; TABLE 6 well G5, 10% vitreous
[22] = biological target: pure human iC3b (Complement Technology, A115) (human) (UniProt P01024); assay: sandwich ELISA, capture A209 (Example 5), goat anti-C3-HRP; TABLE 6 well H2, 10% vitreous
[23] = biological target: pure human iC3b (Complement Technology, A115) (human) (UniProt P01024); assay: sandwich ELISA, capture A209 (Example 5), goat anti-C3-HRP; TABLE 6 well H4, 10% vitreous
[24] = biological target: pure human iC3b (Complement Technology, A115) (human) (UniProt P01024); assay: sandwich ELISA, capture A209 (Example 5), goat anti-C3-HRP; TABLE 6 well H5, 10% vitreous
[25] = biological target: pure human iC3b (Complement Technology, A115) (human) (UniProt P01024); assay: sandwich ELISA, capture A209 (Example 5), goat anti-C3-HRP; TABLE 7, iC3b in 30% vitreous

Sequence of UniProt P01024 (P01024 23-667 limits assumed, chain 1 of 3): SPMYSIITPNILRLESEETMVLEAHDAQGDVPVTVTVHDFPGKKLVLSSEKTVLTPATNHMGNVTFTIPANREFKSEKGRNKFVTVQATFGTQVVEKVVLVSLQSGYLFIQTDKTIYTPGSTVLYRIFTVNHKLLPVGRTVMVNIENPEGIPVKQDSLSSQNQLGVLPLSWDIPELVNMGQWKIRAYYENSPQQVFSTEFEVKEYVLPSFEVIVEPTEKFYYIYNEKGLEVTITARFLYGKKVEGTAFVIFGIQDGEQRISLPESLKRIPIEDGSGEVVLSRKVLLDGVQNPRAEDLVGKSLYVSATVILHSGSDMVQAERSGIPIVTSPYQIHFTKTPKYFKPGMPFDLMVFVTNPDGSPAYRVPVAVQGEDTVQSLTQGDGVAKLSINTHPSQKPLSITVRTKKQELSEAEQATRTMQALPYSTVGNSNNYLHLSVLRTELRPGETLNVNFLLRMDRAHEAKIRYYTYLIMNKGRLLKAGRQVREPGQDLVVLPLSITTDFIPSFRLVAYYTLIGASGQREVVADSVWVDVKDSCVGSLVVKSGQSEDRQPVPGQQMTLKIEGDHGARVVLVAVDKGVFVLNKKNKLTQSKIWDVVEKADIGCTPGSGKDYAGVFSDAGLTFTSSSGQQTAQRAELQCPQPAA
Sequence of UniProt P01024 (P01024 749-1303 limits assumed, chain 2 of 3): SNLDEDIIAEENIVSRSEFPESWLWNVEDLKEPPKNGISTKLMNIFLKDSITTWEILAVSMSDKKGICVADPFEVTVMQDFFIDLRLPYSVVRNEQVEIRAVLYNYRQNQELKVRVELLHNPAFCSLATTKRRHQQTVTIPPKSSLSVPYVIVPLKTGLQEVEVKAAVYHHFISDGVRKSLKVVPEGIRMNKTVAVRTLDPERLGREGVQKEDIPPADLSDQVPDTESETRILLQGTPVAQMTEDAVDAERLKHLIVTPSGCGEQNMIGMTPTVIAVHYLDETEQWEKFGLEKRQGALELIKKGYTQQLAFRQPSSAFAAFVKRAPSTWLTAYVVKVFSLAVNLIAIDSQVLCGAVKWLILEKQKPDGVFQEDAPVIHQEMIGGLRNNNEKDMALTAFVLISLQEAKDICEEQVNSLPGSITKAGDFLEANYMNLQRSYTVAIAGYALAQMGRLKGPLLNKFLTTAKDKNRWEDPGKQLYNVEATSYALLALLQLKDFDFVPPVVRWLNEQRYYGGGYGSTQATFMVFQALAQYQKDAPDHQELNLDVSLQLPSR
Sequence of UniProt P01024 (P01024 1321-1663 limits assumed, chain 3 of 3): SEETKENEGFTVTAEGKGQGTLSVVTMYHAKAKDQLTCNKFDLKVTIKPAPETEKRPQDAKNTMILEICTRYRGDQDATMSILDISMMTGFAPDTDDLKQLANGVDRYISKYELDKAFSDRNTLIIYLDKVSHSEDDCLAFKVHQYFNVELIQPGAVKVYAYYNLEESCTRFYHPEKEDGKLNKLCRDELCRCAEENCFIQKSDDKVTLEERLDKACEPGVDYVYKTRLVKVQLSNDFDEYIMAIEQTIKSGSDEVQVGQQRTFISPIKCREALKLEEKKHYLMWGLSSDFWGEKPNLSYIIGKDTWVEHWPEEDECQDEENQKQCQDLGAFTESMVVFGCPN

mouse anti-iC3b antibody A209 (Quidel)
raw A450 at iC3b 0.063 ug/ml [1]: 0.064 OD
raw A450 at iC3b 0.016 ug/ml [2]: 0.043 OD
raw A450 at iC3b 1 ug/ml [3]: 0.344 OD
raw A450 at iC3b 0.5 ug/ml [4]: 0.265 OD
raw A450 at iC3b 0.25 ug/ml [5]: 0.167 OD
raw A450 at iC3b 0.063 ug/ml [6]: 0.07 OD
raw A450 at iC3b 0.0078 ug/ml [7]: 0.032 OD
raw A450 at iC3b 1 ug/ml [8]: 0.443 OD
raw A450 at iC3b 1 ug/ml [9]: 0.453 OD
raw A450 at iC3b 0.125 ug/ml [10]: 0.391 OD
raw A450 at iC3b 0.063 ug/ml [11]: 0.362 OD
raw A450 at iC3b 0.5 ug/ml [12]: 0.442 OD
raw A450 at iC3b 0.25 ug/ml [13]: 0.411 OD
raw A450 at iC3b 0.063 ug/ml [14]: 0.353 OD
raw A450 at iC3b 0.031 ug/ml [15]: 0.339 OD
raw A450 at iC3b 0.5 ug/ml [16]: 0.45 OD
raw A450 at iC3b 0.25 ug/ml [17]: 0.435 OD
raw A450 at iC3b 0.063 ug/ml [18]: 0.355 OD
raw A450 at iC3b 0.031 ug/ml [19]: 0.333 OD
raw A450 at iC3b 0.016 ug/ml [20]: 0.318 OD
raw A450 at iC3b 0.125 ug/ml [21]: 0.274 OD
raw A450 at iC3b 1 ug/ml [22]: 0.42 OD
raw A450 at iC3b 0.25 ug/ml [23]: 0.283 OD
raw A450 at iC3b 0.125 ug/ml [24]: 0.3 OD
A450 minus matrix average at iC3b 0.0078 ug/ml [25]: 0.0042 OD
A450 minus matrix average at iC3b 0.016 ug/ml [25]: -0.02 OD
A450 minus matrix average at iC3b 0.031 ug/ml [25]: -0.005 OD
A450 minus matrix average at iC3b 0.063 ug/ml [25]: 0.008 OD
A450 minus matrix average at iC3b 0.125 ug/ml [25]: 0.027 OD
A450 minus matrix average at iC3b 0.25 ug/ml [25]: 0.051 OD
A450 minus matrix average at iC3b 0.5 ug/ml [25]: 0.045 OD
A450 minus matrix average at iC3b 1 ug/ml [25]: 0.087 OD
